Experimental findings from patent publication US5770691A, “Discriminatory substrates for MMP hydrolysis” (Regents of the University of Minnesota, priority 1995, dated 1998) are described below.

Type in all cases: biochemical, human
Substrate in data set [1]: COc1ccc2c(CC(=O)N3CCC[C@H]3C(=O)N[C@@H](CCCCN)C(=O)N3CCC[C@H]3C(=O)N[C@@H](CCC(N)=O)C(=O)N[C@@H](CCC(N)=O)C(=O)N[C@@H](Cc3ccccc3)C(=O)N[C@@H](Cc3ccccc3)C(=O)NCC(=O)N[C@@H](CC(C)C)C(=O)N[C@@H](CCCCNc3ccc([N+](=O)[O-])cc3[N+](=O)[O-])C(=O)NCC(=O)O)cc(=O)oc2c1
As to the kind of experiment: Fluorometric hydrolysis of synthetic Mca/Lys(Dnp) substrates by MMP-2. The note with it: other: MMP-2, 37° C., pH 7.5. The text has this: (§1) All MMPs were purified in zymogen form. ProMMP-1 (Suzuki et al., Biochem., 29, 10261 (1990)), proMMP-2 (Okada et al., Eur. J. Biochem., 194, 721 (1990)), and proMMP-3 (Ito et al., Arch. Biochem. Biophys., 267, 211 (1988)) were purified from the culture medium of human rheumatoid synovial cells stimulated with rabbit macrophage-conditioned medium. ProMMP-9 was purified from the culture medium of HT-1080 cells as described in Morodomi et al., Biochem. J., 285, 603 (1992). ProMMP-2 and proMMP-9 were activated by reacting with 1 mM 4-aminophenylmercuric acetate at 37° C. for 45 minutes and 32 hours, respectively. ProMMP-1 was activated by reacting with 1 mM 4-aminophenylmercuric acetate and an equimolar amount of MMP-3 at 37° C. for 6 hours. After activation, MMP-3 was completely removed from MMP-1 by affinity chromatography using an anti-MMP-3 IgG Affi-Gel 10 column. The resin, Affi-Gel 10 (Biorad, Emoryville, Calif.), was coupled to anti-MMP-3 IgG (Okada et al., Annals of Rheumat. Dis., 48, 645 (1989)) per the manufacturer's protocol. Pro-MMP-3 was activated by reacting with 5 μg/mL chymotrypsin at 37° C. for 2 hours. Chymotrypsin was inactivated with 2 mM diisopropylfluorophosphate. The amounts of active MMP-1, MMP-2, and MMP-3 were determined by titration with tissue inhibitor of metalloproteinase-1(TIMP1) over a concentration range of 0.1-3 μg/mL, while the amount of active MMP-9 was determined by titration with TIMP-2 (0.1-3 μg/mL). TIMP-1 was isolated from the medium of HT-1080 cells as described in Morodomi et al., Biochem J., 285, 603 (1992).
(§2) Substrates were prepared as 10 mM stock solutions in dimethylsulfoxide (DMSO). Fluorescent assays were performed at λex =325 nm and λem =393 nm, which should encounter no interference from Trp residues, using a Hitachi fluorescence spectrophotometer F-3010. Initial total hydrolysis assays were run at a substrate concentration of […] to avoid filtering effects. The change in fluorescence at this concentration was 110 based on total hydrolysis of 1 μM substrate. A typical assay was carried out by incubating 100 μL of various concentrations of a substrate with 10 μL of an enzyme solution (2-20 nM) in 50 mM Tris-HCl, pH 7.5, 0.15M NaCl, 10 mM CaCl2, 0.05% Brij 35, 0.02% NaN3. The reaction was stopped by addition of 900 μl of 3% (v/v) glacial acetic acid. MMP-3 activity at pH 6.0 was measured in 50 mM sodium acetate buffer, pH 6.0, instead of Tris-HCl buffer. The amount of substrate hydrolysis was calculated based on the fluorescence values of the Mca-Arg-Pro-Lys-Pro-Gln standard solution after substraction of the reaction blank value (stopping solution added before the enzyme). Individual kinetic parameters (kcat and KM) were determined over a substrate concentration range of 2.5-75 μM and calculated by double reciprocal plots.

Substrate in data set [2]: CCC[C@H](NC(=O)[C@H](C)NC(=O)[C@H](Cc1ccc(O)cc1)NC(=O)[C@@H]1CCCN1C(=O)[C@H](CCCCN)NC(=O)[C@@H]1CCCN1C(=O)[C@H](CCCNC(=N)N)NC(=O)Cc1cc(=O)oc2cc(OC)ccc12)C(=O)N[C@@H](Cc1c[nH]c2ccccc12)C(=O)N[C@@H](CCSC)C(=O)N[C@@H](CCCCNc1ccc([N+](=O)[O-])cc1[N+](=O)[O-])C(N)=O
The data set is described as above. As to conditions: other: MMP-2, 37° C., pH 7.5.
Description: as §1, §2

Substrate in data set [3]: COc1ccc2c(CC(=O)N3CCC[C@H]3C(=O)N[C@@H](CCCCN)C(=O)N3CCC[C@H]3C(=O)N[C@@H](CCC(N)=O)C(=O)N[C@@H](CCC(N)=O)C(=O)N[C@@H](Cc3ccccc3)C(=O)N[C@@H](Cc3ccccc3)C(=O)NCC(=O)N[C@@H](CC(C)C)C(=O)N[C@@H](CCCCNc3ccc([N+](=O)[O-])cc3[N+](=O)[O-])C(=O)NCC(=O)O)cc(=O)oc2c1
The experiment in a line: Fluorometric hydrolysis of synthetic Mca/Lys(Dnp) substrates by MMP-1. The note with it: other: MMP-1, 37° C., pH 7.5.
Description: as §1, §2

Substrate in data set [4]: CCC[C@H](NC(=O)[C@H](C)NC(=O)[C@H](Cc1ccc(O)cc1)NC(=O)[C@@H]1CCCN1C(=O)[C@H](CCCCN)NC(=O)[C@@H]1CCCN1C(=O)[C@H](CCCNC(=N)N)NC(=O)Cc1cc(=O)oc2cc(OC)ccc12)C(=O)N[C@@H](Cc1c[nH]c2ccccc12)C(=O)N[C@@H](CCSC)C(=O)N[C@@H](CCCCNc1ccc([N+](=O)[O-])cc1[N+](=O)[O-])C(N)=O
The description is as above. As to conditions: other: MMP-1, 37° C., pH 7.5.
Description: as §1, §2

B1: MMP-2 (Homo sapiens) (protein)
chain: YNFFPRKPKWDKNQITYRIIGYTPDLDPETVDDAFARAFQVWSDVTPLRFSRIHDGEADIMINFGRWEHGDGYPFDGKDGLLAHAFAPGTGVGGDSHFDDDELWTLGEGQVVRVKYGNADGEYCKFPFLFNGKEYNSCTDTGRSDGFLWCSTTYNFEKDGKYGFCPHEALFTMGGNAEGQPCKFPFRFQGTSYDSCTTEGRTDGYRWCGTTEDYDRDKKYGFCPETAMSTVGGNSEGAPCVFPFTFLGNKYESCTSAGRSDGKMWCATTANYDDDRKWGFCPDQGYSLFLVAAHEFGHAMGLEHSQDPGALMAPIYTYTKNFRLSQDDIKGIQELYGASPDIDLGTGPTPTLGPVTPEICKQDIVFDGIAQIRGEIFFFKDRFIWRTVTPRDKPMGPLLVATFWPELPEKIDAVYEAPQEEKAVFFAGNEYWIYSASTLERGYPKPLTSLGLPPDVQRVDAAFNWSKNKKTYIFAGDKFWRYNEVKKKMDPGFPKLIADAWNAIPDNLDAVVDLQGGGHSYFFKGAYYLKLENQSLKSVKFGSIKSDWLGC
notes: made in house; host or cells: native secreted protein purified from culture medium of human rheumatoid synovial cells
For the protein B1, in data set [1], the Km was found to be 100 µM, the kcat stood at 1.07 S^-1 and the kcat/Km is 10,800 S^-1 M^-1. In addition, in data set [2], the Km was found to be 50 µM, the kcat was 2.70 S^-1 and the kcat/Km is recorded as 54,000 S^-1 M^-1.

B2: MMP-1 (Homo sapiens) (protein)
chain: FVLTEGNPRWEQTHLTYRIENYTPDLPRADVDHAIEKAFQLWSNVTPLTFTKVSEGQADIMISFVRGDHRDNSPFDGPGGNLAHAFQPGPGIGGDAHFDEDERWTNNFREYNLHRVAAHELGHSLGLSHSTDIGALMYPSYTFSGDVQLAQDDIDGIQAIYGRSQNPVQPIGPQTPKACDSKLTFDAITTIRGEVMFFKDRFYMRTNPFYPEVELNFISVFWPQLPNGLEAAYEFADRDEVRFFKGNKYWAVQGQNVLHGYPKDIYSSFGFPRTVKHIDAALSEENTGKTYFFVANKYWRYDEYKRSMDPGYPKMIAHDFPGIGHKVDAVFMKDGFFYFFHGTRQYKFDPKTKRILTLQKANSWFNCRKN
notes: as for B1
As for B2, in data set [3], the Km stood at 16.6 µM, the kcat came out at 0.04 S^-1 and the kcat/Km was 2,510 S^-1 M^-1. Further, in data set [4], the Km was 142 µM, the kcat is 0.15 S^-1 and the kcat/Km was 1,060 S^-1 M^-1.
